The target of series [1] is SSB (single-stranded DNA binding protein) (UniProt P0AGE0 P0AGE0:2-178). As to the kind of experiment: covalent crosslinking with NHQM + 365 nm UV, denaturing TBE-urea gel shift; 1.5 uM DNA, 0.2 mg/mL SSB, 37 C 30 min; no crosslink with BS3 or UV alone. The conditions noted are these: chain copies: 4.
Series [2] deals with the molecule itself. The experiment in a line: NHSF or BS2G cross-linking of purified GST; SDS-PAGE and Western blot under reducing and denatured conditions (homodimer). A general note: In western blotting, separated proteins are transferred to a membrane and probed.

Chain of SSB (single-stranded DNA binding protein) (P0AGE0 2-178, one chain of several): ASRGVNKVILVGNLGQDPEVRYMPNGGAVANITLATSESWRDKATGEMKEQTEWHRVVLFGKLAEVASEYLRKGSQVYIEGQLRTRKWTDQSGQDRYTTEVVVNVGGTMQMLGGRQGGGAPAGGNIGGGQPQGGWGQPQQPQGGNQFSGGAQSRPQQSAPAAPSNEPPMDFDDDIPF

B1: 19(3x) (ssDNA)
DNA: TGTAGCTGTTGATCTAAGTTGTAGCTGTTGATCTAAGTTGTAGCTGTTGATCTAAGT
With B1, the binding result in series [1] is on record as “binds”.

B2: ATC(4x) (ssDNA)
DNA: AATTCGCCAATGACAAGACGCTGGGCGGGGCCGGATCCATCATCATCATCTAGAAGCT
As to B2, the binding result in series [1] was “binds”.

B3: E. coli wild type glutathione S-transferase (GST) (enzyme)
chain: MKLFYKPGACSLASHITLRESGKDFTLVSVDLMKKRLENGDDYFAVNPKGQVPALLLDDGTLLTEGVAIMQYLADSVPDRQLLAPVNSISRYKTIEWLNYIATELHKGFTPLFRPDTPEEYKPTVRAQLEKKLQYVNEALKDEHWICGQRFTIADAYLFTVLRWAYAVKLNLEGLEHIAAFMQRMAERPEVQDALSAEGLKHHHHHH
notes: Written as the single subunit
For B3, the binding result in series [2] is recorded as “binds”.
